Measured values as given in US20240228584A1 (FBD BIOLOGICS, published 2024).

B1: G4_TGFβRII (wt) (Fc fusion)
chain: IPPHVQKSVNNDMIVTDNNGAVKFPQLCKFCDVRFSTCDNQKSCMSNCSITSICEKPQEVCVAVWRKNDENITLETVCHDPKLPYHDFILEDAASPKCIMKEKKKPGETFFMCSCSSDECNDNIIFSEEYNTSNPD
notes: TGFβRII extracellular domain linked to an IgG4 Fc region; Fc is placed first here only because of the name G4_TGFβRII; also called wild-type G4_TGFβRII protein; not shown: Fc region of IgG4 (and any linker)
B2: human TGFβ3 (ligand, UniProt P10600 301-412, looked up)
chain: ALDTNYCFRNLEENCCVRPLYIDFRQDLGWKWVHEPKGYYANFCSGPCPYLRSADTTHSTVLGLYNTLNPEASASPCCVPQDLEPLTILYYVGRTPKVEQLSNMVVKSCKCS

What was measured:
human TGFβ1 [1] = target: T1, human TGFβ1 (human, UniProt P01137 279-390); test: ELISA, plate coated with 0.5 ug/ml human TGFβ1, 1 h incubation, HRP secondary antibody, OD450
Description: (§1) A 96-well EIA microplate was coated with 0.5 ug/ml human TGFβ (TGFβ1, TGFβ2, or TGFβ3) overnight at 4° C. […] The unbound proteins were removed by washing the wells with 1×PBST (1×PBS containing 0.05% Tween 20) three times. A HRP-conjugated secondary antibody (1:5000) was added to the wells at room temperature (RT) for 1 hour. After the incubation, excess secondary antibodies were removed by washing the wells with 1×PBST three times. Finally, 3,3′,5,5′-Tetramethylbenzidine (TMB) was added for color development. The reaction was stopped and HRP activity was measured using a spectrophotometer at 450 nm.

human TGFβ3 [2] = target: B2; test: cell-based or functional assay
human TGFβ3 [3] = target: B2; test: ELISA, plate coated with 0.5 ug/ml human TGFβ3, 1 h incubation, HRP secondary antibody, OD450
Description: as §1

human TGFβ1 [4] = target: T1, human TGFβ1; test: ELISA (on rate), plate coated with 0.5 ug/ml human TGFβ1, 5 min incubation, OD450
Description: as §1, with “For on-rate binding ability, a 96-well” for “A 96-well”, “0.5 μg/ml” for “0.5 ug/ml”, “TGFβ (TGFβ1)” for “TGFβ (TGFβ1, TGFβ2, or TGFβ3)”, “containing 0.1%” for “containing 0.05%”, “at RT” for “at room temperature (RT)”

human TGFβ1 [5] = target: T1, human TGFβ1; test: cell-based or functional assay
human TGFβ1 [6] = target: T1, human TGFβ1; test: ELISA (off rate), plate coated with 0.5 ug/ml human TGFβ1, 1 h incubation, then 2 h wash on a shaker, OD450
Description: A HRP-conjugated secondary antibody (1:5000) was added to the wells at RT for 1 hour. After the incubation, excess secondary antibodies were removed by washing the wells with 1×PBST three times. Finally, 3,3′,5,5′-Tetramethylbenzidine (TMB) was added for color development. The reaction was stopped and HRP activity was measured using a spectrophotometer at 450 nm.

G4_TGFβRII (wt) = target: B1; test: ELISA, plate coated with 0.5 ug/ml human TGFβ3, 1 h incubation, HRP secondary antibody, OD450
Description: as §1

T1 sequence (P01137 279-390 limits assumed): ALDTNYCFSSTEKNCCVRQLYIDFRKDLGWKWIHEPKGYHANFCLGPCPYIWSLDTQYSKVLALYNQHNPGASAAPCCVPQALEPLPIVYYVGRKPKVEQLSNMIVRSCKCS

B1
EC50 (read off the curve) (human TGFβ1 [1]): ~6 nM
IC50 (read off the curve) (human TGFβ3 [2]): ~3 nM
EC50 (read off the curve) (human TGFβ3 [3]): ~2 nM
EC50 (human TGFβ1 [4]): 10.8 nM
IC50 (read off the curve) (human TGFβ1 [5]): ~1 nM
EC50 (read off the curve) (human TGFβ1 [6]): ~4 nM

B2
binding result (G4_TGFβRII (wt)): binds
